Measured values as given in PMC11218660, “Functional dissection of human cardiac enhancers and noncoding de novo variants in congenital heart disease”.

Molecular target: T1, SRF (human, UniProt P11831 1-508)
T1 sequence: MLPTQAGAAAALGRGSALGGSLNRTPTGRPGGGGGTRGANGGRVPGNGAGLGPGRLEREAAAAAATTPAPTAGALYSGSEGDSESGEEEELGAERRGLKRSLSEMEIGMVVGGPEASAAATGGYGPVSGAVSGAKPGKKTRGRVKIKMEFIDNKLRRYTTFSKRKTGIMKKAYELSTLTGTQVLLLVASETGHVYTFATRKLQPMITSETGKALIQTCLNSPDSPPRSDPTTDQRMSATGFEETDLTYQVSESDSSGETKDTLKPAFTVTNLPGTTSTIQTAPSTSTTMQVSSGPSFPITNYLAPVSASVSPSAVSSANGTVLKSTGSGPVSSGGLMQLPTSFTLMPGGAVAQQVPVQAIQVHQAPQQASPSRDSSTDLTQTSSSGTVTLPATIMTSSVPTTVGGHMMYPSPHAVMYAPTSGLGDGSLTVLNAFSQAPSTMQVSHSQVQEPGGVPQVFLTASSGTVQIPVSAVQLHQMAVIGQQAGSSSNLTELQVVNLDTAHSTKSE
Experiment: EMSA; EMSA: 150 mM KCl, 0.1 mM DTT, 0.1 mM EDTA, 10 mM Tris pH 7.4; 500-800 fmol probe, 0.1-2.0 ug protein in 15-20 ul; room temperature 20 min; 6% native PAGE, SYBR
Details: protein: recombinant; chain copies: 2; blunt

B1: GLB1L3-CRE REF (dsDNA)
DNA 1: GAGGGAGGGGAGCGATCTCTCCTTTCTTGGAGAAAATAGTATCGC
DNA 2: GCGATACTATTTTCTCCAAGAAAGGAGAGATCGCTCCCCTCCCTC
- binding result: binds

B2: ADAMTS6-CRE ALT (dsDNA)
DNA 1: AATGCATCTGCTTGCTTCATTTGGCAGATTCCTCAAGAGT
DNA 2: ACTCTTGAGGAATCTGCCAAATGAAGCAAGCAGATGCATT
- binding result: binds
